We go through 4 molecules from US20130196933A1 (BOARD OF TRUSTEES OF THE UNIVERSITY OF ILLINOIS, published 2013).

The target of one assay is T1, GFP-FoxM1B 1-688 protein (human, UniProt Q08050 1-703).
T1 construct: not shown: green fluorescent protein (EGFP) of the pEGFP-C2 expression plasmid (Clontech), N-terminal fusion partner
T1 sequence: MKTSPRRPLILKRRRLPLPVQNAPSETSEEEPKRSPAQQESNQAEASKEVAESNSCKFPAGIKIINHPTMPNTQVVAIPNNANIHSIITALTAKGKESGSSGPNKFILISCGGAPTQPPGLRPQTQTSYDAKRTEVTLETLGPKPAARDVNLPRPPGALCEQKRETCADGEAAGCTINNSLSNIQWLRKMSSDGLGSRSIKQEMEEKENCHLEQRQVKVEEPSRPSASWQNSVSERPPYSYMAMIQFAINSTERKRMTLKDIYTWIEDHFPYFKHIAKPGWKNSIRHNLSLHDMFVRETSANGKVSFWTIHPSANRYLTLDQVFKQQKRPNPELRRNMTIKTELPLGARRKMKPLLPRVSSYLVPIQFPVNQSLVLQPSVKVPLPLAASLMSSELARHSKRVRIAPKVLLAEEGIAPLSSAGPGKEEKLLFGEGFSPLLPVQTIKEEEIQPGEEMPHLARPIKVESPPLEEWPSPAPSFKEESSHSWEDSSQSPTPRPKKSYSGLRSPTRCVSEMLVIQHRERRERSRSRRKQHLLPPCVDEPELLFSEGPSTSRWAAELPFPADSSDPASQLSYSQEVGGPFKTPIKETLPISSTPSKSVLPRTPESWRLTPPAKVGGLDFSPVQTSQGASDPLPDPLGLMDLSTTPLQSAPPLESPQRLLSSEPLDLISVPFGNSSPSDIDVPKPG
Nature of the assay: Co-IP from transfected U2OS extracts.

Assay [1] addresses T2, GFP-FoxM1B fusion protein, wild type (CMV GFP-FoxM1B; GFP-T7-FoxM1B WT; GFP-FoxM1B 1-748 full-length) (human, UniProt Q08050 1-763).
T2 construct: Expressed in transfected U2OS cells; also called CMV-GFP-T7-FoxM1B; GFP-FoxM1B WT; not shown: green fluorescent protein (EGFP) of the pEGFP-C2 expression plasmid (Clontech), N-terminal fusion partner
T2 sequence: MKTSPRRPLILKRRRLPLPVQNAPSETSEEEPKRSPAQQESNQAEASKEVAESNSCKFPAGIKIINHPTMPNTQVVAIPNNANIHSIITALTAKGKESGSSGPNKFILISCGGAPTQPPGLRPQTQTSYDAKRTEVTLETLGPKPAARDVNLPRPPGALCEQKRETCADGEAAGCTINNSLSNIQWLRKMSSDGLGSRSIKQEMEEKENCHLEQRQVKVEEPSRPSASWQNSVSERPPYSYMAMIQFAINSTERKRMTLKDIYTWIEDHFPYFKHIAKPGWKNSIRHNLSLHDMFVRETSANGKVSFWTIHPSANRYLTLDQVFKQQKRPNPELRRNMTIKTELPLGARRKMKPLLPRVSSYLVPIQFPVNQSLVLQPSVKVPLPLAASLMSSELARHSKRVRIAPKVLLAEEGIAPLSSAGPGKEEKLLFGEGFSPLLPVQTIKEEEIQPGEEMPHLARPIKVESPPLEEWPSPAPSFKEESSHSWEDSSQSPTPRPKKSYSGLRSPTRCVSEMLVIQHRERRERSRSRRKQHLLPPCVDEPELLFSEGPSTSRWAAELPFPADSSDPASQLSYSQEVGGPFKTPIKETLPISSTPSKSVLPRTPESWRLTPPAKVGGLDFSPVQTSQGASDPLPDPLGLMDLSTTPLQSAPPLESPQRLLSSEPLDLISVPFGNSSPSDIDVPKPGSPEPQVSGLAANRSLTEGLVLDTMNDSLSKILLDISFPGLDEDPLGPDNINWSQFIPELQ
The assay is described as follows: Co-IP with HA antibody, Western blot with GFP antibody. For orientation: Immunoblotting shows a protein as a band on a membrane.

The next assay has as its target Cdk2 protein (human, UniProt P24941 1-298). Nature of the assay: Co-IP from transfected U2OS extracts with Cdk2 antibody, Western blot with T7 tag antibody.

Where a chain is given by its changes, count along the chain named. Names may count otherwise.

Excerpt for Cdk2 protein: The immunoprecipitated proteins were subjected to Western blot analysis using a monoclonal antibody against the T7 epitope tagged antibody protein.

B1: HA-p19^ARF WT protein (other, not shown: small tags and cut ends)
chain: MGRRFLVTVRIQRAGRPLQERVFLVKFVRSRRPRTASCALAFVNMLLRLERILRRGPHRNPGPGDDDGQRSRSSSSAQLRCRFELRGPHYLLPPGDRRSAGRLPGHAGGAARVRGSAGCARCLGSPAARLGPRAGTSRHRAIFAFRWVLFVFRWVVFVYRWERRPDRRA
notes: residues 26-44 of it are the printed p19ARF 26-44 peptide; Expressed in transfected U2OS cells; also called WT p19; HA tagged p19
In the case of B1, in the assay with GFP-FoxM1B 1-688 protein, the binding result was “no binding”.

B2: HA-p19^ARF Δ26-37 deletion mutant (other, not shown: small tags and cut ends)
chain: MGRRFLVTVRIQRAGRPLQERVFLVCALAFVNMLLRLERILRRGPHRNPGPGDDDGQRSRSSSSAQLRCRFELRGPHYLLPPGDRRSAGRLPGHAGGAARVRGSAGCARCLGSPAARLGPRAGTSRHRAIFAFRWVLFVFRWVVFVYRWERRPDRRA
notes: Deletion of p19 residues 26-37; also called CMV p19^ARFΔ26-37
As for B2, the binding result in assay [1] was “no binding”.

B3: HA-p19^ARF Δ26-37+Δ1-14 deletion mutant (other, not shown: small tags and cut ends)
chain: GRPLQERVFLVCALAFVNMLLRLERILRRGPHRNPGPGDDDGQRSRSSSSAQLRCRFELRGPHYLLPPGDRRSAGRLPGHAGGAARVRGSAGCARCLGSPAARLGPRAGTSRHRAIFAFRWVLFVFRWVVFVYRWERRPDRRA
notes: Deletion of p19 residues 1-14 and 26-37
Consider B3, for which, in assay [1], the binding result is “no binding”.

B4: T7-FoxM1B L641A mutant protein (other, not shown: small tags and cut ends)
chain: T2 sequence with L641A
notes: expressed in transfected U2OS cells; also called CMV T7-FoxM1B L641A; CMV FoxM1B L641A
Consider B4, for which, in the assay with Cdk2 protein, the binding result is reported as “no binding”.
